The text below walks through data of patent US20230265187A1.

In assay [1] the target is human TIGIT on Jurkat cells (TIGIT/NFAT reporter Jurkat cells, BPS Bioscience #60538; Promega TIGIT Effector Cells) (human) (UniProt Q495A1). The experiment in a line: cell-based or functional assay.
The target is the same in assay [2]. Nature of the assay: flow cytometry, TIGIT/NFAT Jurkat cells, 10 ug/ml.

Chain of human TIGIT on Jurkat cells (TIGIT/NFAT reporter Jurkat cells, BPS Bioscience #60538; Promega TIGIT Effector Cells) (human) (Q495A1 22-244): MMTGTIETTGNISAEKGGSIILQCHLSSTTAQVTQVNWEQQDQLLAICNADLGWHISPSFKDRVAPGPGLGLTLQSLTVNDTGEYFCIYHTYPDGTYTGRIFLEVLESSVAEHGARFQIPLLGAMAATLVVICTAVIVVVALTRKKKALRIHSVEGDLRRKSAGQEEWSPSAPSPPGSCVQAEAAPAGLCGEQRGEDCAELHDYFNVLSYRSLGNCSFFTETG

B1: 43586p1.2.F6 (scFv, V domains shown)
VH: EVQLLESGEGLVQPGGSLRLSCAASGFTFTSYLMSWVRQAPGKGLEWVSTITWDGDRTYYADSVKGRFTISRDNSKNTLYLQMNSLRVGDTAVYYCAKHWTVFQYGMDVWGQGTTVTVSS
VL: QSVLTQPASASGTPGQRVTISCSGTISNIETKYVSWYQQLPGTAPKLLIYGNHQRPSGVPDRFSGSKSGTSASLAISGLQSEDEADYYCASWENDLKSWVFGGGTKLTVL
On to B1, for which, in assay [1], the max. signal (% of 22G2) was 116 % of 22G2. In assay [2], the MFI is 10700 MFI.
